B1: TPR t1 (parent)
chain: GACCAAUCUGCCCUCAGAGCUCGAGAACAUCUUCGGAUGCAGAGGAGGCAGGCUUCGGUGGCGCGAUAGCGCCAACGUCCUCAACCUCCAAUGCAUCCCACCACAUGAUGAUGCCUGAAGAGCCUUGGUUUUUUG

Variants of: B1
Test: polymerase ribozyme fitness, log enrichment relative to wild type (log ratio); higher = more active; in vitro selection for triplet polymerase activity
In short: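 Input and output libraries were sequenced on Illumina after a single in vitro selection round, run in triplicate on PCR-built, transcribed mutant libraries of each subunit of a heterodimeric triplet polymerase ribozyme. Selection annealed libraries to a biotinylated primer, the partner subunit and triplets, incubated them frozen at −7 °C, then gel-excised extended constructs for streptavidin-bead capture and RT-PCR. Genotypes with ≥10 input reads and ≥1 read per output were kept. Fitness is the logarithm, taken in base 2, of genotype enrichment divided by wild-type enrichment, using inverse-variance-weighted replicate averages.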

Variant | polymerase ribozyme fitness (log ratio)
GACCAAUCUGCCCUCAGAGCUCGAGAACAUCUUCGGAUGCAGAGGAGGCAGGCUUCGGUGGCGCGAUAGCGGCAACGUCCUCAACCUCCAAUGCCUCCCACCACAUGAUGAUGCCUGAAGAGCCUUGGUUUUUUG [C72G A95C] | -2.36
GACCAAUCUGCCCUCAGAGCUCGAGAACAUCUUCGGAUGCAGAGGAGGCAGGCUUCGGUGGCGCGAUAGCGGCAACGUCCUCAACCUCCACUGCAUCCCACCACAUGAUGAUGCCUGAAGAGCCUUGGUUUUUUG [C72G A91C] | -1.51
GACCAAUCUGCCCUCAGAGCUCGAGAACAUCUUCGGAUGCAGAGGAGGCAGGCUUCGGUGGCGCGAUAGCGGCAACGUCCUCAACCUCCAGUGCAUCCCACCACAUGAUGAUGCCUGAAGAGCCUUGGUUUUUUG [C72G A91G] | -1.13
GACCAAUCUGCCCUCAGAGCUCGAGAACAUCUUCGGAUGCAGAGGAGGCAGGCUUCGGUGGCGCGAUAGCGGCAACGUCCUCAACCUCUAAUGCAUCCCACCACAUGAUGAUGCCUGAAGAGCCUUGGUUUUUUG [C72G C89U] | -0.34
GACCAAUCUGCCCUCAGAGCUCGAGAACAUCUUCGGAUGCAGAGGAGGCAGGCUUCGGUGGCGCGAUAGCGACAACGUCCUCAACCUCCAAUGCAUCCCACCACAUGAUGAUGCCUGAAGAGCCUUGGUAUUUUG [C72A U130A] | -0.443
GACCAAUCUGCCCUCAGAGCUCGAGAACAUCUUCGGAUGCAGAGGAGGCAGGCUUCGGUGGCGCGAUAGCGGCAACGUCCUAAAACUCCAAUGCUUCCCACCACAUGAUGAUGCCUGAAGAGCCUUGGUUUUUUG [C72G C82A C85A A95U] | -4.18
GACCAAUCUGCCCUCAGAGCUCGAGAACAUCUUCGGAUGCAGAGGAGGCAGGCUUCGGUGGCGCGAUAGCGGCAACGUCCUCAACCUCCAAUGCAUCCCACCACAUGAUGAUGCCUGAAGAGCCUUGGUUUUUUG [C72G] | -0.25
GACCAAUCUGCCCUCAGAGCUCGAGAACAUCUUCGGAUGCAGAGGAGGCAGGCUUCGGUGGCGCGAUAGCGGCAACGUCAUCAACCUCCAAUGCAUCCCACCACAUGAUGAUGCCUGAAGAGCCUUGGUUUUUUG [C72G C80A] | -5.5
GACCAAUCUGCCCUCAGAGCUCGAGAACAUCUUCGGAUGCAGAGGAGGCAGGCUUCGGUGGCGCGAUAGCGGCAACGUCCUCAACCUCCAAUGCAUCCCACCACAUGAUGUUGCCUGAAGAGCCUUGGUGUUUUG [C72G A111U U130G] | -4.27
GACCAAUCUGCCCUCAGAGCUCGAGAACAUCUUCGGAUGCAGAGGAGGCAGGCUUCGGUGGCGCGAUAGCGGCAACGUCCUCAACCUCCAAUGCAUCCCAUCACAUGAUGAUGCCUGAAGAGCCUUGGUUUUUUG [C72G C101U] | -0.7
GACCAAUCUGCCCUCAGAGCUCGAGAACAUCUUCGGAUGCAGAGGAGGCAGGCUUCGGUGGCGCGAUAGCGGCAACGUCCUCAACCUCCAAUGCAUCCCAACACAUGAUGAUGCCUGAAGAGCCUUGGUUUUUUG [C72G C101A] | -0.799
GACCAAUCUGCCCUCAGAGCUCGAGAACAUCUUCGGAUGCAGAGGAGGCAGGCUUCGGUGGCGCGAUAGCGGCAACGUCCUCAACGUCCAAUGCAUCCCACCACAUGAUGAUGCCUGAAGUGCCAUGGUUUUUUU [C72G C86G A121U U125A G135U] | -2.76
GACCAAUCUGCCCUCAGAGCUCGAGAACAUCUUCGGAUGCAGAGGAGGCAGGCUUCGGUGGCGCGAUAGCGACAACGUCCUCAACCUCCAAUGCAUCCCACCACAUGAUGAUGCCUGAAGAGCCUUGGUUCUUUG [C72A U131C] | -0.247
GACCAAUCUGCCCUCAGAGCUCGAGAACAUCUUCGGAUGCAGAGGAGGCAGGCUUCGGUGGCGCGAUAGCGGCAACGUCCUCAACCUCCAAUGCAUCCCACCACAUGAUGAUGCCUGAGGAGCCUUGGUUUUUUG [C72G A119G] | 1.3
GACCAAUCUGCCCUCAGAGCUCGAGAACAUCUUCGGAUGCAGAGGAGGCAGGCUUCGGUGGCGCGAUAGCGGCAACGUCCUUAACCUCCAAUGCAUCCCACAACAUGAUGAUGCCUGAAAAGCCUUGGUUUUUUG [C72G C82U C102A G120A] | -1.89
GACCAAUCUGCCCUCAGAGCUCGAGAACAUCUUCGGAUGCAGAGGAGGCAGGCUUCGGUGGCGCGAUAGCGGCAACGUCCUCAACCUUCAAUGCAUCCCACCACAUGAUGAUGCCUGAAGAGCCUUGGAUUUUUG [C72G C88U U129A] | -0.881
GACCAAUCUGCCCUCAGAGCUCGAGAACAUCUUCGGAUGCAGAGGAGGCAGGCUUCGGUGGCGCGAUAGCGGCAACGUCGUCAACCUCCAAUGCAUCCCACCACAUGAUGAUGCCUGAAGAGCCUUGGUCUUUUG [C72G C80G U130C] | -5.89
GACCAAUCUGCCCUCAGAGCUCGAGAACAUCUUCGGAUGCAGAGGAGGCAGGCUUCGGUGGCGCGAUAGCGGCAACGUCCUAAACCUCCAAUGCAUCCCACCACAUGAUGAUGCCUGAAGAGCCUUGGUUUUUUG [C72G C82A] | -1.18
GACCAAUCUGCCCUCAGAGCUCGAGAACAUCUUCGGAUGCAGAGGAGGCAGGCUUCGGUGGCGCGAUAGCGGCAACGUCCUGAACCUCCAAUGCAUCCCACCACAUGAUGAUGCCUGAAGAGCCUUGGUUUUUUG [C72G C82G] | -1
GACCAAUCUGCCCUCAGAGCUCGAGAACAUCUUCGGAUGCAGAGGAGGCAGGCUUCGGUGGCGCGAUAGCGGCAACGUCCUCAACCUCCAAUGCAUCCCACCACAUGAUGCUGCCUGAAGAGCCUUGGUUUUUUG [C72G A111C] | -0.642
GACCAAUCUGCCCUCAGAGCUCGAGAACAUCUUCGGAUGCAGAGGAGGCAGGCUUCGGUGGCGCGAUAGCGGCAACGUCCUCAACCUCCAAUGUAUCCCACCACAUGAUGAUGCCUGAAGAGCCUUGGUUUUUUG [C72G C94U] | 0.173
